Molecular target: T1, CD177 (UniProt Q8N6Q3 22-408, limits assumed)
T1 construct: Immobilized on a GLH sensor chip by amine chemistry for SPR; also called neutrophil receptor CD177
T1 sequence (looked up): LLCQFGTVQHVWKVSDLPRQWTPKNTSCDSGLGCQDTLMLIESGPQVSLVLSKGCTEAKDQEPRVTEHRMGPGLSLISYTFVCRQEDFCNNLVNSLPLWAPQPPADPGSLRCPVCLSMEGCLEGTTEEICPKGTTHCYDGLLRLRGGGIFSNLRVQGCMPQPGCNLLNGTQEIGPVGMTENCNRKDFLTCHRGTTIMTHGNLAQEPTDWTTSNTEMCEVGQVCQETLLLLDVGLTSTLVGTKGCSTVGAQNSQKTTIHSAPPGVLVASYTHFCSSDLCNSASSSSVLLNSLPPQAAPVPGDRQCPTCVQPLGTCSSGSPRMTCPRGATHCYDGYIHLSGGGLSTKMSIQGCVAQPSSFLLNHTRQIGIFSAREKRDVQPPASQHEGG
Test: SPR (ProteOn XPR36), CD177 immobilized on GLH chip by amine chemistry, PR3 variant in a concentration series
Description: FIG. 2: Comparison of wtPR3 and monomeric PR3 properties by SPR and ELISA. […] The antibodies each recognize distinct, non-overlapping epitopes on PR3. wtPR3 (left bar) and the monomeric Trp222Ala PR3 variant (right bar) are equally well recognized by the antibodies.
Experiments were performed on a ProteOn XPR36 instrument (BioRad) with proteins immobilized to GLH sensor chips (BioRad) using standard amine chemistry. The binding interaction of a concentration series of soluble monomeric Trp222Ala PR3 variant with immobilized CD177 was assessed (FIG. 2A).

Kd: 57 nM
B1: monomeric Trp222Ala PR3 variant (enzyme)
chain: IVGGHEAQPHSRPYMASLQMRGNPGSHFCGGTLIHPSFVLTAAHCLRDIPQRLVNVVLGAHNVRTQEPTQQHFSVAQVFLNNYDAENKLNDVLLIQLSSPANLSASVATVQLPQQDQPVPHGTQCLAMGWGRVGAHDPPAQVLQELNVTVVTFFCRPHNICTFVPRRKAGICFGDSGGPLICDGIIQGIDSFVIAGCATRLFPDFFTRVALYVDWIRSTLRRVEAKGRP
notes: Made as a C-terminal fusion with human Ig1 Fc and secreted through an N-terminal Ig1 signal peptide; The propeptides aa 26-27 and aa 249-256 may also be absent, and residues left by the TEV site may remain at the C-terminus; also called monomeric PR3
